Like-named read-outs stand apart in the source and are kept apart here.

The target of data set [1] is T1, RPA heterotrimer (UniProt P27694;P15927;P35244 1-616;1-270;1-121). Nature of the data set: EMSA. In general terms: Mobility shift assays separate free from complexed probe on a gel.
The target of data set [2] is T2, hUNG2 full-length (human, UniProt P13051 1-313). The experiment in a line: fluorescence anisotropy. In general terms: In fluorescence polarisation assays a small probe gives low polarisation when free and higher when bound to something large.
T2 sequence (P13051 whole entry): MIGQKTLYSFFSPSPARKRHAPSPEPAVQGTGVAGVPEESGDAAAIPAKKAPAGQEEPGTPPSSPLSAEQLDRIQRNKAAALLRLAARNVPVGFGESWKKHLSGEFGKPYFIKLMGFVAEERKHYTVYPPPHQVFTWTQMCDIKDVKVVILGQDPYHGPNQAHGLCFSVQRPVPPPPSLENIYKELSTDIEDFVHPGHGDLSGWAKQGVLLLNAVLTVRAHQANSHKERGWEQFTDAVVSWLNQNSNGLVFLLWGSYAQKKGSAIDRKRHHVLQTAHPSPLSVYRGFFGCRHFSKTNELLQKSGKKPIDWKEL
Data set [3] has as its target T2, hUNG2 full-length. The experiment in a line: fluorescence anisotropy. The source holds these as a separate data set.
Data set [4] concerns the target hUNG2 catalytic domain (human, UniProt P13051 92-313). The experiment in a line: fluorescence anisotropy.
Data set [5] has as its target T1, RPA heterotrimer. Nature of the data set: EMSA. The source holds these as a separate data set.

T1 sequence (P27694 whole entry, chain 1 of 3): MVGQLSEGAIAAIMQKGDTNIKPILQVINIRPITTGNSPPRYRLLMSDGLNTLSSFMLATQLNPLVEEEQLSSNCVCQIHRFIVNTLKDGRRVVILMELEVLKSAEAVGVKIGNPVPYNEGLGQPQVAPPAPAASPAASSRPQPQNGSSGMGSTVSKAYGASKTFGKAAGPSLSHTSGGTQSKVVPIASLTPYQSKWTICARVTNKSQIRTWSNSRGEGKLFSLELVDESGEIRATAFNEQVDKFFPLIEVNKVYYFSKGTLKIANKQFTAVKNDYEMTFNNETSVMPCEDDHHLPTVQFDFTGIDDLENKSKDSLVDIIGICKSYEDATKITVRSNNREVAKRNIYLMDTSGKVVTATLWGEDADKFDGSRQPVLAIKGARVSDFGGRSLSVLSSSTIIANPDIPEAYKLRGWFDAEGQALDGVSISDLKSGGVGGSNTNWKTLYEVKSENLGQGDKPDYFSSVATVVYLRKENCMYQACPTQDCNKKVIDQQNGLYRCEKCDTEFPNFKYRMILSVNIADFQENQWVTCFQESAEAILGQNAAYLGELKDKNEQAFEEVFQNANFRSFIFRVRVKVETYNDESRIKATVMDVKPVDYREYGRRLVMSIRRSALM
T1 sequence (P15927 whole entry, chain 2 of 3): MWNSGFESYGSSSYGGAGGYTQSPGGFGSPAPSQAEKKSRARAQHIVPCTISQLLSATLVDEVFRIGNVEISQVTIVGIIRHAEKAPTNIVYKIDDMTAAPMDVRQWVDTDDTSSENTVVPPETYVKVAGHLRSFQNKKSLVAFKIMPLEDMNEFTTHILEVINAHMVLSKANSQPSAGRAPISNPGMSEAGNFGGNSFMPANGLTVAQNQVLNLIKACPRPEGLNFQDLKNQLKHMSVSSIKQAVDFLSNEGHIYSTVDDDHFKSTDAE
T1 sequence (P35244 whole entry, chain 3 of 3): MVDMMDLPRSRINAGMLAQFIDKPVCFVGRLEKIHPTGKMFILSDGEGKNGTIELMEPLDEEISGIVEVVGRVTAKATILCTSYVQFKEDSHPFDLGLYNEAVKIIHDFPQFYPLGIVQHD
Chain of hUNG2 catalytic domain (P13051 92-313): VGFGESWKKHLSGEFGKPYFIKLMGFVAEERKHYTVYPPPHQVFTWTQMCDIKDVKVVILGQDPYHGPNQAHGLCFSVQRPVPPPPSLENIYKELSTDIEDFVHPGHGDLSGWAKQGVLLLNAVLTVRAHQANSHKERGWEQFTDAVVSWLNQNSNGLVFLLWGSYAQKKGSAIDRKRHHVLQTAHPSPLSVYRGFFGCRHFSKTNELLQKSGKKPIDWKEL

B1: 55 bp duplex U9/U33 with 32 nt 5' overhang (oligos 9/10) (mixed)
DNA 1: ATCGAGCTGGACACCATCACTCCATATTGGTCACTTAGCTATCGATTCCCGCATGCTCTTAGCTATCGATTCACCTGAGACTAGTCA
DNA 2: TGACTAGTCTCAGGTGAATCGAUAGCTAAGAGCATGCGGGAATCGAUAGCTAAGT
modifications: two deoxyuridines in strand 2
As to B1, the binding result in data set [1] is given as “binds”.

B2: 55 bp duplex U21/U45 with 32 nt 5' overhang (oligos 4/5) (mixed)
DNA 1: ATCGAGCTGGACACCATCACTCCATATTGGTCACTGCATGCTCTTCTTAGCTATCGATTCACCTGAGACCTTAGCTATCGATTCTCA
DNA 2: TGAGAATCGAUAGCTAAGGTCTCAGGTGAATCGAUAGCTAAGAAGAGCATGCAGT
modifications: two deoxyuridines in strand 2
As for B2, the binding result in data set [1] was “binds”.

B3: 29 bp duplex with 29 nt 5' ssDNA overhang (oligos 15/16) (mixed)
DNA 1: CACGCGTGGCCCGGCAGTTATCCAGCACCACTTAGCTATCGATTCCCGCATGCTCTGA
DNA 2: TCAGAGCATGCGGGAATCGATAGCTAAGT
As to B3, the binding result in data set [2] is “binds”.

Turning to CACGCGTGGCCCGGCAGTTATCCAGCACC (ssDNA) [29 nt ssDNA (oligo 14)], in data set [3], the binding signal is 3 fold higher affinity than N1 (29 bp dsDNA).

B4: 29 bp duplex (oligos 13/14) (dsDNA)
DNA 1: GGTGCTGGATAACTGCCGGGCCACGCGTG
DNA 2: CACGCGTGGCCCGGCAGTTATCCAGCACC
With B4, in data set [4], the binding signal was 3 fold lower affinity than full-length hUNG2.

B5: 55 bp duplex U9/U33 with 32 nt 3' overhang (oligos 18/19) (mixed)
DNA 1: ACTGATCAGAGTCCACTTAGCTATCGATTCTCGTACGCCCTTAGCTATCGATTCACTGGTTATACCTCACTACCACAGGTCGAGCTA
DNA 2: TGAATCGAUAGCTAAGGGCGTACGAGAATCGAUAGCTAAGTGGACTCTGATCAGT
modifications: two deoxyuridines in strand 2
Regarding B5, the binding result in data set [5] is “binds”.
